B1: huOKT3 IgG1-aGlyco (antibody, V domains shown)
VH: QVQLVQSGGGVVQPGRSLRLSCKASGYTFTRYTMHWVRQAPGKGLEWIGYINPSRGYTNYNQKFKDRFTISRDNSKNTAFLQMDSLRPEDTGVYFCARYYDDHYCLDYWGQGTPVTVSS
VL: DIQMTQSPSSLSASVGDRVTITCSASSSVSYMNWYQQTPGKAPKRWIYDTSKLASGVPSRFSGSGSGTDYTFTISSLQPEDIATYYCQQWSSNPFTFGQGTKLQITR

Columns and labels:
EGFR (human) [1] = biological target: EGFR (human) (UniProt P00533); experiment: flow cytometry on U2OS cells; histogram shifted to between 10^1 and 10^2, partly overlapping the control; 'No antibody' panel shows 6.17
EGFR (human) [2] = biological target: EGFR (human) (UniProt P00533); experiment: flow cytometry on HeLa cells; histogram shifted to between 10^2 and 10^3; 'No antibody' panel shows 5.56
EGFR (human) [3] = biological target: EGFR (human) (UniProt P00533); experiment: flow cytometry on PCI-30 cells; main peak between 10^2 and 10^3 with a tail toward the control; 'No antibody' panel shows 13.1
antigen CD3 (Biacore) = experiment: SPR (Biacore), antigen CD3

Row | Molecule | MFI (EGFR (human) [1]) | MFI (EGFR (human) [2]) | MFI (EGFR (human) [3]) | Kd (antigen CD3 (Biacore)) | koff (antigen CD3 (Biacore)) | kon (antigen CD3 (Biacore))
1 | EGFR 528 (phb 704) (antibody) | 26.8 | 586 | 388 | – | – | –
2 | B1 | – | – | – | 64.6 nM | 0.109 s⁻¹ | 1.68e+06 M⁻¹ s⁻¹
